# Measurements as given in US20090075921A1, “Bone/joint disease sensitivity gene and use thereof” (Riken, priority 2004, published 2009).
# What was measured:
# [1] = system: Smad3-specific gene transcription in NHAC; experiment: SBE4-Luc reporter assay of TGF-β1-stimulated Smad3-specific gene transcription in NHAC; assay type: cell-based, human; conditions: asporin 40 μg/ml, TGF-β1 10 ng/ml, 24 hours
# Method: NHAC was inoculated to a 24-well plate at 2.5×10^4 cells/well, cultured in a DMEM/F12 containing 10% FBS and penicillin/streptomycin for 24 hours, and transfected with the SBE4-Luc (Smad binding element ×4-luciferase) plasmid and the pRL-TK vector, which was used as endogenous control. 48 hours later, asporin (40 μg/ml) was added; still 12 hours later, TGF-β1 (10 ng/ml) was added; and the cells were incubated for 24 hours. The luciferase activity in the cells was measured using a PG-DUAL-SP reporter assay system (Toyo Ink).
# [2] = system: Smad2 phosphorylation in NHAC; experiment: Smad2 phosphorylation by TGF-β1 in NHAC (Western blotting); assay type: cell-based, human; conditions: asporin 20 μg/ml, TGF-β1 40 ng/ml, 10 minutes
# Method: NHAC was inoculated to a 12-well plate, and cultured in a DMEM/F12 containing 10% FBS and penicillin/streptomycin; when the cells became nearly confluent, the medium was exchanged with the same medium containing 0.2% serum. 12 hours later, asporin (20 μg/ml) was added; still 12 hours later, TGF-β1 (40 ng/ml) was added; 10 minutes later, the cells were lysed with the M-PER reagent (PIERCE). SDA-PAGE was performed using this cell extract, and Western blotting was performed according to the protocol attached to an antibody product of Cell Signaling Company. As the primary antibodies for detection of phosphorylated Smad2 and Smad2 protein, Phospho-Smad2 antibody (Cell Signaling) and rabbit anti-Smad2 (Zymed Laboratories) were used, respectively. As the […], anti-rabbit IgG-HRP (Cell Signaling) was used.
# bFGF = bFGF (Homo sapiens, UniProt P09038); experiment: Binding assay of mouse asporin and bFGF by microplate assay method; conditions: bFGF-coated plate, OD405
# Method: (§1) A binding assay was performed using the method described in Example 24 with a partial modification as described below. To a Maxisorp 96-well microplate of Nunc, a 1 μg/ml TGF-β1 solution prepared with 0.05M sodium carbonate buffer (pH 9.6) was dispensed at 100 μl/well, and the microplate was coated with TGF-β1 at 4° C. overnight. The TGF-β-coated wells were blocked in 200 μl/well of Block Ace at 37° C. for 3 hours. Next, mouse asporin and biotinylated mouse asporin, diluted with Block Ace, were added to obtain a total volume of 100 μl per well, and the microplate was incubated at 4° C. overnight. The wells were washed with […] of TBST three times, after which streptavidin-alkaline phosphatase (Novagen) diluted 1000 fold with TBST was added at […], and the microplate was incubated at room temperature for 1 hour. The wells were washed with 400 μl/well of TBST five times, and then colored using an alkaline phosphatase substrate kit (BIO-RAD), and the absorbance at 405 nm was measured using Ultramark Microplate Imaging System (BIO-RAD).
# A binding assay was performed in the same manner as Example 34 except that the microplate was coated with bFGF solution in place of 1 μg/ml TGF-β1.
# NHAC = experiment: MTT assay of TGF-β1-stimulated cell growth in NHAC; assay type: cell-based, human; conditions: TGF-β1 40 ng/ml with asporin 5 or 20 μg/ml, 5 days
# Method: NHAC was inculated to a 12-well plate at 1×10^5 cells/well, and cultured in a DMEM/F12 containing 10% FBS supplemented with TGF-β1 (40 ng/ml) and asporin (5 or 20 μg/ml) for 5 days, after which the degree of cell growth was examined by the MTT assay method described below. Specifically, 3-(4,5-dimethyl-2-thiazolyl)-2,5-diphenyl-2H-tetrazolium bromide (MTT, Dojindo Laboratory) was dissolved in DMEM/F12 to obtain a concentration of 1 mg/ml, the solution was added to the cells after the medium was removed by suction, and the cells were cultured at 37° C. for 1 hour. Thereafter the medium containing MTT was discarded, and the cells were subjected to extraction treatment using a Lysis reagent (86% isopropanol, 40 mM hydrochloric acid, 1% SDS). This cell lysate was transferred to a 96-well plate, and the absorbance at 550 nm was measured using a microplate reader.
# ATDC5 cells [3] = experiment: Purified recombinant mouse asporin on TGF-β1-stimulated aggrecan and type II collagen gene expression in ATDC5; assay type: cell-based; conditions: TGF-β1 10 ng/ml, 18 hours, corrected by GAPDH
# Method: ATDC5 cells were inoculated to a 12-well plate at […], and cultured in a medium 1-2 (a DMEM/F12 medium containing 5% FBS, ITS (Sigma), penicillin (100 U/ml) and streptomycin (100 μg/ml)) for 2 days. Purified mouse asporin diluted with a medium 1-2 containing 0.2% FBS was added to the cells, and the cells were further cultured for 12 hours, after which TGF-β1 (10 ng/ml) was added, and the cells were further cultured for 18 hours, after which total RNA extraction, purification, cDNA synthesis, and real-time PCR were performed in the same manner as Example 18. At this time, the expression levels of the aggrecan and type II collagen genes were corrected by the expression level of the […] (GAPDH) gene.
# TGF-β1 = TGF-β1 (Homo sapiens, UniProt P01137); experiment: Binding assay of purified recombinant mouse asporin and TGF-β by microplate assay method; conditions: biotinylated mouse asporin, TGF-β1-coated plate, OD405
# Method: as §1
# [4] = system: Smad2 phosphorylation in ATDC5 cells; experiment: TGF-β1-stimulated Smad2 phosphorylation in ATDC5 cells (Western blotting); assay type: cell-based, mouse; conditions: TGF-β1 10 ng/ml, 5 minutes
# Method: ATDC5 was inoculated to a 12-well plate, and cultured using the medium 1-2 described in Example 19 until the cells became confluent, after which the medium was exchanged with the same medium but containing 0.2% FBS; 4 hours later, asporin was added. 12 hours later, TGF-β1 (10 ng/ml) was added; 5 minutes later, the cells were lysed with the M-PER reagent (PIERCE). Using this cell extract, SDS-PAGE was performed, and according to the protocol attached to an antibody product of Cell Signaling Company, Western blotting was performed. As the primary antibodies for detection of phosphorylated Smad2 and Smad2 protein, phospho-Smad2 antibody (Cell Signaling) and rabbit anti-Smad2 (Zymed Laboratories) were used, respectively. As the secondary antibody, anti-rabbit IgG-HRP (Cell Signaling) was used.
# ATDC5 cells [5] = experiment: MTT assay of ATDC5 cell growth; assay type: cell-based, mouse
# Method: ATDC5 was inoculated to a 12-well plate at 0.4×10^5 cells/well, and cultured using the medium 1-2 described in Example 19 for 24 hours, after which asporin and bFGF were added, and MTT assay was performed over time as described below. Specifically, the medium was removed by suction, the 1 mg/ml MTT reagent (DOJINDO) dissolved in DMEM/F12 was added at 1 ml/well, and the plate was incubated in a CO2 incubator for 1 hour. The supernatant was removed by suction, a Lysis reagent (86% isopropanol, 40 mM HCl, 1% SDS) was added to the plate at 0.2 ml/well, and extraction was performed at room temperature for 5 minutes. This extract was transferred to a 96-well plate, and OD550 was measured using a plate reader.
# Sequence of bFGF (P09038 134-288 limits assumed, species assumed): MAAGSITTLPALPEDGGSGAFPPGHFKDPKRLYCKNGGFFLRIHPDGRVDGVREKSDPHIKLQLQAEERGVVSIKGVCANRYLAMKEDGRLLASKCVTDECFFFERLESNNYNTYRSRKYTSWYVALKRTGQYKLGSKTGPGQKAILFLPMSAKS
# Sequence of TGF-β1 (P01137 279-390 limits assumed, species assumed): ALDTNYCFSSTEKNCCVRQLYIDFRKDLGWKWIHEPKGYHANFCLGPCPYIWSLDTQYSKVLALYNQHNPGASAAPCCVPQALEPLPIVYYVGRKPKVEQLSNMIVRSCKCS
molecule,measurement,setting,value
"purified mouse asporin: recombinant mouse asporin expressed in Escherichia coli, refolded from insoluble fraction and purified by gel filtration (protein, left off: small tags and cut ends) DMEDTDDDDNDDDDNSLFPTKEPVNPFFPFDLFPTCPFGCQCYSRVVHCSDLGLTSVPNNIPFDTRMVDLQNNKIKEIKENDFKGLTSLYALILNNNKLTKIHPKTFLTTKKLRRLYLSHNQLSEIPLNLPKSLAELRIHDNKVKKIQKDTFKGMNALHVLEMSANPLENNGIEPGAFEGVTVFHIRIAEAKLTSIPKGLPPTLLELHLDFNKISTVELEDLKRYRELQRLGLGNNRITDIENGTFANIPRVREIHLEHNKLKKIPSGLQELKYLQIIFLHYNSIAKVGVNDFCPTVPKMKKSLYSAISLFNNPMKYWEIQPATFRCVLGRMSVQLGNVGK",TGF-β1-stimulated elevation of luciferase activity (SBE4-Luc),[1],significantly suppressed
same,Smad2 phosphorylation by TGF-β1 stimulation,[2],suppressed the Smad2 phosphorylation by TGF-β1 stimulation
same,binding to bFGF (microplate),bFGF,bound to bFGF concentration-dependently and specifically
same,"cell growth of NHAC (MTT, absorbance at 550 nm)",NHAC,suppressed concentration-dependently
same,suppression of the TGF-β1-stimulated expression of the aggrecan and type II collagen genes,ATDC5 cells [3],observed depending on the amount of purified mouse asporin added
same,binding to TGF-β1 (microplate),TGF-β1,bound to TGF-β1 concentration-dependently and specifically
same,Smad2 phosphorylation by TGF-β1 stimulation,[4],suppressed the Smad2 phosphorylation by TGF-β1 (10 ng/ml) stimulation concentration-dependently
same,"growth of ATDC5 cells (MTT, OD550)","ATDC5 cells [5]; added alone, medium 1-2",suppressed the growth of ATDC5 cells concentration-dependently
same,growth suppressive effect of bFGF on ATDC5 cells,ATDC5 cells [5]; addition of asporin 10 μg/ml,enhanced
